# Test results from the supplement of paper PMC12855868.
# B1: library; numbered along this chain (parent)
# chain: MAAAGGARLLRAASAVLGGPAGRWLHHAGSRAGSSGLLRNRGPGGSAEASRSLSVSARARSSSEDKITVHFINRDGETLTTKGKVGDSLLDVVVENNLDIDGFGACEGTLACSTCHLIFEDHIYEKLDAITDEENDMLDLAYGLTDRSRLGCQICLTKSMDNMTVRVPETVADARQSIDVGKTS
# Variants of: B1
# Experiment: scaled log2 fold change in cell abundance, elesclomol vs control (0 = silent mean, 1 = nonsense mean) (scaled log2 ratio); higher = higher viability under elesclomol (loss of FDX1 cuproptosis function)
# Conditions: glucose 10 mM
# Method: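 Deep mutational scan of full-length human FDX1: a pooled saturation-mutagenesis ORF library (every residue 2-184 mutated to all 19 amino acids plus stop, and silent codons where available) was expressed by lentivirus in FDX1-knockout ABC1 (14 days) or HEK293T (11 days) cells grown with elesclomol (ES) or DMSO control. Variant abundance came from ORF sequencing. The log2 fold change (ES vs control, mean of duplicates) was centred on the silent-variant mean (0) and scaled to the nonsense-variant mean (1). Higher values mean greater viability under ES, i.e. loss of FDX1 function in cuproptosis.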
# [1] = with ABC1 FDX1 KO, elesclomol 5 nM, 14 days
# [2] = with HEK293T FDX1 KO, elesclomol 40 nM, 11 days
# 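Note: variant abundance is its share of total variant reads in each endpoint sample, from next-generation sequencing of the integrated ORF PCR-amplified out of genomic DNA.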
Variant,scaled log2 fold change [1],scaled log2 fold change [2]
MAAAGGARLLRAASAVLGGPAGRWLHHAGSRAGSSGLLRNRGPGSSAEASRSLSVSARARSSSEDKITVHFINRDGETLTTKGKVGDSLLDVVVENNLDIDGFGACEGTLACSTCHLIFEDHIYEKLDAITDEENDMLDLAYGLTDRSRLGCQICLTKSMDNMTVRVPETVADARQSIDVGKTS,0.0305,-0.567
MAAAGGARLLRAASAVLGGPAGRWLHHAGSRAGSSGLLRNRGPGNSAEASRSLSVSARARSSSEDKITVHFINRDGETLTTKGKVGDSLLDVVVENNLDIDGFGACEGTLACSTCHLIFEDHIYEKLDAITDEENDMLDLAYGLTDRSRLGCQICLTKSMDNMTVRVPETVADARQSIDVGKTS,0.148,0.842
MAAAGGARLLRAASAVLGGPAGRWLHHAGSRAGSSGLLRNRGPGMSAEASRSLSVSARARSSSEDKITVHFINRDGETLTTKGKVGDSLLDVVVENNLDIDGFGACEGTLACSTCHLIFEDHIYEKLDAITDEENDMLDLAYGLTDRSRLGCQICLTKSMDNMTVRVPETVADARQSIDVGKTS,0.116,-0.315
MAAAGGARLLRAASAVLGGPAGRWLHHAGSRAGSSGLLRNRGPGLSAEASRSLSVSARARSSSEDKITVHFINRDGETLTTKGKVGDSLLDVVVENNLDIDGFGACEGTLACSTCHLIFEDHIYEKLDAITDEENDMLDLAYGLTDRSRLGCQICLTKSMDNMTVRVPETVADARQSIDVGKTS,0.411,-0.007
MAAAGGARLLRAASAVLGGPAGRWLHHAGSRAGSSGLLRNRGPGVSAEASRSLSVSARARSSSEDKITVHFINRDGETLTTKGKVGDSLLDVVVENNLDIDGFGACEGTLACSTCHLIFEDHIYEKLDAITDEENDMLDLAYGLTDRSRLGCQICLTKSMDNMTVRVPETVADARQSIDVGKTS,0.149,-0.648
MAAAGGARLLRAASAVLGGPAGRWLHHAGSRAGSSGLLRNRGPGTSAEASRSLSVSARARSSSEDKITVHFINRDGETLTTKGKVGDSLLDVVVENNLDIDGFGACEGTLACSTCHLIFEDHIYEKLDAITDEENDMLDLAYGLTDRSRLGCQICLTKSMDNMTVRVPETVADARQSIDVGKTS,0.167,-0.525
MAAAGGARLLRAASAVLGGPAGRWLHHAGSRAGSSGLLRNRGPGRSAEASRSLSVSARARSSSEDKITVHFINRDGETLTTKGKVGDSLLDVVVENNLDIDGFGACEGTLACSTCHLIFEDHIYEKLDAITDEENDMLDLAYGLTDRSRLGCQICLTKSMDNMTVRVPETVADARQSIDVGKTS,0.363,-0.475
MAAAGGARLLRAASAVLGGPAGRWLHHAGSRAGSSGLLRNRGPGQSAEASRSLSVSARARSSSEDKITVHFINRDGETLTTKGKVGDSLLDVVVENNLDIDGFGACEGTLACSTCHLIFEDHIYEKLDAITDEENDMLDLAYGLTDRSRLGCQICLTKSMDNMTVRVPETVADARQSIDVGKTS,0.0494,0.513
MAAAGGARLLRAASAVLGGPAGRWLHHAGSRAGSSGLLRNRGPGYSAEASRSLSVSARARSSSEDKITVHFINRDGETLTTKGKVGDSLLDVVVENNLDIDGFGACEGTLACSTCHLIFEDHIYEKLDAITDEENDMLDLAYGLTDRSRLGCQICLTKSMDNMTVRVPETVADARQSIDVGKTS,0.16,0.922
MAAAGGARLLRAASAVLGGPAGRWLHHAGSRAGSSGLLRNRGPGISAEASRSLSVSARARSSSEDKITVHFINRDGETLTTKGKVGDSLLDVVVENNLDIDGFGACEGTLACSTCHLIFEDHIYEKLDAITDEENDMLDLAYGLTDRSRLGCQICLTKSMDNMTVRVPETVADARQSIDVGKTS,-0.00298,-0.325
MAAAGGARLLRAASAVLGGPAGRWLHHAGSRAGSSGLLRNRGPGKSAEASRSLSVSARARSSSEDKITVHFINRDGETLTTKGKVGDSLLDVVVENNLDIDGFGACEGTLACSTCHLIFEDHIYEKLDAITDEENDMLDLAYGLTDRSRLGCQICLTKSMDNMTVRVPETVADARQSIDVGKTS,0.0509,-0.713
MAAAGGARLLRAASAVLGGPAGRWLHHAGSRAGSSGLLRNRGPGWSAEASRSLSVSARARSSSEDKITVHFINRDGETLTTKGKVGDSLLDVVVENNLDIDGFGACEGTLACSTCHLIFEDHIYEKLDAITDEENDMLDLAYGLTDRSRLGCQICLTKSMDNMTVRVPETVADARQSIDVGKTS,0.411,0.942
MAAAGGARLLRAASAVLGGPAGRWLHHAGSRAGSSGLLRNRGPGPSAEASRSLSVSARARSSSEDKITVHFINRDGETLTTKGKVGDSLLDVVVENNLDIDGFGACEGTLACSTCHLIFEDHIYEKLDAITDEENDMLDLAYGLTDRSRLGCQICLTKSMDNMTVRVPETVADARQSIDVGKTS,-0.0714,-0.0345
MAAAGGARLLRAASAVLGGPAGRWLHHAGSRAGSSGLLRNRGPGGAAEASRSLSVSARARSSSEDKITVHFINRDGETLTTKGKVGDSLLDVVVENNLDIDGFGACEGTLACSTCHLIFEDHIYEKLDAITDEENDMLDLAYGLTDRSRLGCQICLTKSMDNMTVRVPETVADARQSIDVGKTS,0.558,0.128
MAAAGGARLLRAASAVLGGPAGRWLHHAGSRAGSSGLLRNRGPGGDAEASRSLSVSARARSSSEDKITVHFINRDGETLTTKGKVGDSLLDVVVENNLDIDGFGACEGTLACSTCHLIFEDHIYEKLDAITDEENDMLDLAYGLTDRSRLGCQICLTKSMDNMTVRVPETVADARQSIDVGKTS,0.694,0.458
MAAAGGARLLRAASAVLGGPAGRWLHHAGSRAGSSGLLRNRGPGGCAEASRSLSVSARARSSSEDKITVHFINRDGETLTTKGKVGDSLLDVVVENNLDIDGFGACEGTLACSTCHLIFEDHIYEKLDAITDEENDMLDLAYGLTDRSRLGCQICLTKSMDNMTVRVPETVADARQSIDVGKTS,0.738,0.494
